Assays:
[1] = target: monomeric streptavidin variant mSA2; assay: fluorescent binding assay, labeled mSA2 on thin film
Description: The binding function of rcSso7d.SA oligomer-PNIPAM thin films was measured using fluorescently-labeled monomeric streptavidin (mSA2) and fluorescently-labeled streptavidin (SA). Details for the expression, purification, and fluorescent labeling of mSA2 are provided below. Samples were prepared by serial dilution of SA or mSA2 in PBS (pH 7.4), human urine (diluted to 50% v/v in PBS, pH 7.4), or blood serum (obtained as the supernatant by centrifuging whole blood at 1500×g for 10 minutes, then diluted to 50% v/v in PBS, pH 7.4). 0.5 μL drops of solutions containing serially diluted fluorescent mSA2 and fluorescent SA samples in PBS (pH 7.4) were gently applied to the surface of each bioconjugate thin film. […] After 1 hour, films were thoroughly rinsed with water for 10 seconds (a time determined to be sufficient to remove unbound molecules from the film, see FIG. 33, dried under filtered airflow, and immediately analyzed for fluorescent signal. Fluorescence microscopy images were acquired at 4× magnification using a Cy5 filter set and exposure time of 5000 ms on an Olympus IX-81 inverted fluorescence microscope with an AxioCam HRC CCD camera. Fluorescent intensity was calculated using ImageJ software⁶⁷ by determining the average fluorescent signal in a rectangular area of the fluorescent image free of defects and occupying no less than half of the full sample application area. […]

[2] = target: monomeric streptavidin variant mSA2; assay: calculated from [P]T of the mSA2 binding curve fit and film thickness; set-up: Calculated Density (density of binding sites within a cross-sectional area of the film): unit not given here
Description: To determine the density of binding proteins within a single plane of each thin film, the concentration of accessible binding sites throughout the entire film—taken directly from the binding assay curve fits (Table 4)—was multiplied by the corresponding film thickness. When accounting for differences in film thickness, the density of oligomerized rcSso7d.SA proteins capable of binding mSA2 is found to increase […] with degree of oligomerization (Table 5). This calculated density decreases, though, between the 1×SP25k and 2×SP25k thin films, indicating a lower density of accessible binding sites in the protein domains of the oligomerized rcSso7d.SA conjugate film. The total number of predicted binding sites within each thin film assuming complete accessibility should be proportional to the […] of rcSso7d. SA in the conjugate with PNIPAM. Reasonable estimates for relative values of the predicted number of sites can thus be obtained by normalizing the weight fraction of rcSso7d. SA in each conjugate by the corresponding weight fraction in 1×SP25k. Comparing these predicted relative number of binding sites to the calculated values (FIG. 6C), all oligomeric rcSso7d.SA conjugates are found to contain fewer proteins capable of binding mSA2 than predicted. It is likely that this effect results from a combination of steric blocking of binding sites by bound mSA2 molecules as well as a lack of the free volume required to incorporate mSA2 molecules into the protein nanodomains at high degrees of binding. Despite the lower than expected binding capacity of the conjugate thin films, these biosensors contain approximately […] the quantity of accessible binding sites compared to rcSso7d.SA monolayers on a volumetric basis (Table 4). Recognizing that each plane (and a monolayer) of rcSso7d.SA proteins is roughly 1-2 nm thick,⁸⁰ the studied thin films can be determined to contain approximately 100 more planes of protein than a monolayer.

[3] = target: monomeric streptavidin variant mSA2; assay: fluorescent binding assay, labeled mSA2 in PBS on thin film; quadratic curve fit
Description: (§1) The binding function of rcSso7d.SA oligomer-PNIPAM thin films was measured using fluorescently-labeled monomeric streptavidin (mSA2) and fluorescently-labeled streptavidin (SA). Details for the expression, purification, and fluorescent labeling of mSA2 are provided below. Samples were prepared by serial dilution of SA or mSA2 in PBS (pH 7.4), human urine (diluted to 50% v/v in PBS, pH 7.4), or blood serum (obtained as the supernatant by centrifuging whole blood at 1500×g for 10 minutes, then diluted to 50% v/v in PBS, pH 7.4). 0.5 μL drops of solutions containing serially diluted fluorescent mSA2 and fluorescent SA samples in PBS (pH 7.4) were gently applied to the surface of each bioconjugate thin film. Films were incubated in a sealed chamber saturated with water vapor at room temperature to prevent to prevent drying of the applied fluorescent samples. After 1 hour, films were thoroughly rinsed with water for 10 seconds (a time determined to be sufficient to remove unbound molecules from the film, see FIG. 33, dried under filtered airflow, and immediately analyzed for fluorescent signal. Fluorescence microscopy images were acquired at 4× magnification using a Cy5 filter set and exposure time of 5000 ms on an Olympus IX-81 inverted fluorescence microscope with an AxioCam HRC CCD camera. Fluorescent intensity was calculated using ImageJ software⁶⁷ by determining the average fluorescent signal in a rectangular area of the fluorescent image free of defects and occupying no less than half of the full sample application area.
Binding assays were performed by adding serially diluted solutions of fluorescently-labeled mSA2 to thin films of each studied conjugate (FIG. 6A). To maintain consistent transport properties between samples, each oligomer was conjugated to the same previously-synthesized 25 kDa PNIPAM sample. Analyte bound to thin films was quantified using fluorescence microscopy, and binding curves were fit to the collected mean fluorescent intensity (MFI) data using the following equation: […]

[4] = target: monomeric streptavidin variant mSA2; assay: fluorescent binding assay, labeled mSA2; signal three standard deviations above blank
Description: as §1
Oligomerization of rcSso7d.SA also brings about a decrease in biosensor limit of detection (LOD). […] While all thin films display improvements up to threefold in LOD over the monolayer, the trend in LOD with respect to degree of oligomerization is non-monotonic. The primary factor that is expected to affect LOD in the studied biosensors is number of binding sites, as more binding sites enable a greater number of analyte molecules to be captured and shifts analyte-receptor equilibrium in favor of binding events.

B1: 3xSP25k thin film (3x rcSso7d.SA-PNIPAM conjugate, PNIPAM Mn 24.9 kDa) (designed binder)
chain: MGSSHHHHHHSSGLVPRGSHMCATVKFTYQGEEKQVDISKIKIVARDGQYIDFKYDEGGGAYGYGWVSEKDAPKELLQMLEKQGGGGSGGGGSMATVKFTYQGEEKQVDISKIKIVARDGQYIDFKYDEGGGAYGYGWVSEKDAPKELLQMLEKQGGGGSGGGGSMATVKFTYQGEEKQVDISKIKIVARDGQYIDFKYDEGGGAYGYGWVSEKDAPKELLQMLEKQGG
modifications: maleimide end-functionalized PNIPAM (Mn 24.9 kDa) on the N-terminal Cys; film lightly crosslinked with glutaraldehyde
notes: Three rcSso7d.SA repeats joined by (G4S)2 linkers in one chain; also called conjugate of the trimer
- fluorescent signal relative to rcSso7d.SA monolayer [1]: > 10 fold
- Calculated Density (density of binding sites within a cross-sectional area of the film) [2]: 59
- Calculated Ratio (film thickness x [P]T relative to the 1xSP25k thin film) [2]: 1.24
- [P]T (total concentration of accessible binding sites) [3]: 3.9 µM
- limit of detection (LOD) [4]: 110 nM

From patent publication US20200057058A1 (MIT, published 2020)
